In PMC9115778:

Legend:
[1] = molecular target: human IR FnIII-1 domain (residues 460-596; C468A, C524A, DFR496-498AAA) (human) (UniProt P06213); experiment: ITC
[2] = molecular target: human IR L1-CR-L2/α-CT domains (human) (UniProt P06213); experiment: ITC

Q: For “insulin WT (ΔB30; desB30 human insulin) (ligand)”, which Kd [1] is on record?
A: 760 nM

Q: What about the Kd [2] of the same substance?
A: 90 nM
